Results: patent publication EP1473042A1 (City of Hope, dated 2004)
Positions count from the first letter of the chain named.

T1: rat FXR (farnesoid X-activated receptor), full-length (rat, UniProt Q62735 1-469)
T1 construct: mature; in vitro translated for the mobility shift assays; also called bile acid nuclear receptor; BAR
T1 sequence (looked up): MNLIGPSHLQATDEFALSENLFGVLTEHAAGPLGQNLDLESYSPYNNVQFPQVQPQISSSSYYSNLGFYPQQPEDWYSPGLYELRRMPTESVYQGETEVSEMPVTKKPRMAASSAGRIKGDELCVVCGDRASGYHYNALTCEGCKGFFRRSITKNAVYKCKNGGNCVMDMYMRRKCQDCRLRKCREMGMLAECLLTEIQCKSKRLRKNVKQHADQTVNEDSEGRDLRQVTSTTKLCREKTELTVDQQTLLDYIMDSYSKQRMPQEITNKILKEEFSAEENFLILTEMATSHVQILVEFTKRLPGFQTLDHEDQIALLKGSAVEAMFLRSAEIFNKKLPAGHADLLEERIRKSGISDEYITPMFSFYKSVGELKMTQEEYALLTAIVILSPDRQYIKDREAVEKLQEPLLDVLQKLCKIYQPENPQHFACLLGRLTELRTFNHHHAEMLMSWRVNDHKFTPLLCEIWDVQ

B1: RXRm, human RXRα with the single point mutation Asp 322→Pro in the ligand binding domain (receptor, UniProt P19793 1-462, looked up)
chain: MDTKHFLPLDFSTQVNSSLTSPTGRGSMAAPSLHPSLGPGIGSPGQLHSPISTLSSPINGMGPPFSVISSPMGPHSMSVPTTPTLGFSTGSPQLSSPMNPVSSSEDIKPPLGLNGVLKVPAHPSGNMASFTKHICAICGDRSSGKHYGVYSCEGCKGFFKRTVRKDLTYTCRDNKDCLIDKRQRNRCQYCRYQKCLAMGMKREAVQEERQRGKDRNENEVESTSSANEDMPVERILEAELAVEPKTETYVEANMGLNPSSPNDPVTNICQAADKQLFTLVEWAKRIPHFSELPLDDQVILLRAGWNELLIASFSHRSIAVKPGILLATGLHVHRNSAHSAGVGAIFDRVLTELVSKMRDMQMDKTELGCLRAIVLFNPDSKGLSNPAEVEALREKVYASLEAYCKHKYPEQPGRFAKLLLRLPALRSIGLKCLEHLFFFKLIGDTPIDTFLMEMLEAPHQMT
notes: mature; also called mutant RXR; RXR mutant
B2: human RXRα (9-cis retinoic acid receptor), full-length, wild type (receptor, UniProt P19793 1-462, looked up)
chain: B1 chain with P322D
notes: mature; also called wild-type RXR
B3: GST-GRIP1 (glutathione-S-transferase fused to the three receptor interaction domains of mouse GRIP1, Arg 625 - Lys 765) (other, UniProt Q61026 625-765, looked up)
chain: RAEGHSRLHDSKGQTKLLQLLTTKSDQMEPSPLPSSLSDTNKDSTGSLPGPGSTHGTSLKEKHKILHRLLQDSSSPVDLAKLTAEATGKELSQESSSTAPGSEVTVKQEPASPKKKENALLRYLLDKDDTKDIGLPEITPK
notes: range 625-765; Expressed in E. coli, purified on glutathione-sepharose; also called CoA; not shown: glutathione-S-transferase (GST)

Assays:
[1] = molecular target: GST-GRIP1 (glutathione-S-transferase fused to the three receptor interaction domains of mouse GRIP1, Arg 625 - Lys 765) (mouse) (UniProt Q61026); assay: electrophoretic mobility shift, DR1 probe, 5 µg GST-GRIP1, LG268 0-1000 nM
[2] = molecular target: GST-GRIP1 (glutathione-S-transferase fused to the three receptor interaction domains of mouse GRIP1, Arg 625 - Lys 765) (mouse) (UniProt Q61026); assay: phosphorimager quantitation of the mobility shift autoradiogram (Figure 4)
[3] = molecular target: T1, rat FXR (farnesoid X-activated …); assay: DNA binding as heterodimer (Figure 5 and data not shown)
[4] = molecular target: T1, rat FXR (farnesoid X-activated …); assay: electrophoretic mobility shift, hsp27 EcRE probe, in vitro translated FXR + RXR
[5] = molecular target: B2; assay: electrophoretic mobility shift, DR1 probe, increasing LG268

Binder: B1
fold decrease in potency of coactivator recruitment compared to wild type RXR [1]: 100 fold
fold higher concentration of ligand (LG268) required for recruitment of coactivator, against wild-type RXR [2]: 100 fold
binding result [3]: binds

Binder: B2
binding result [4]: binds

Binder: B3
binding result [5]: binds
